In patent publication US20150098939A1 (Sanofi, published 2015):

T1: human GPVI protein, soluble extracellular domain (D1 and D2) (human, UniProt Q9HCN6 21-267)
T1 construct: extracellular domain; also called hGPVI; human glycoprotein VI
T1 sequence (looked up): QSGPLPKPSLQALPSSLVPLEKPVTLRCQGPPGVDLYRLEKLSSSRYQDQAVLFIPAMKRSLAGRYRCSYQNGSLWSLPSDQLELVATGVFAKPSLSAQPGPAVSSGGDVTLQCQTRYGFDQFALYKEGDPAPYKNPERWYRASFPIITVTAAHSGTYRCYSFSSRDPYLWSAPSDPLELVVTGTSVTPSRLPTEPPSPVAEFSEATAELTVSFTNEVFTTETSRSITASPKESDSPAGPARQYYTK

T2: human GPVI on platelets (human, UniProt Q9HCN6 21-339)
T2 sequence (looked up): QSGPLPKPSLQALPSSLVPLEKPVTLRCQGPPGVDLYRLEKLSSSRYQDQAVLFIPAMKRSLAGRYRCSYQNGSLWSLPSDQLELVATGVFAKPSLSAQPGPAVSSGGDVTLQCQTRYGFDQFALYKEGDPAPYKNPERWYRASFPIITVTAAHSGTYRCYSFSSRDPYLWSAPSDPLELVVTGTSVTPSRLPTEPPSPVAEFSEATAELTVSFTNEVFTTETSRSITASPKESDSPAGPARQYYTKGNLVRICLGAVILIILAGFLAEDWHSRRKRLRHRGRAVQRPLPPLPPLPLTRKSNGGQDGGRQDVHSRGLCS


What was measured:
[1] = target: T1, human GPVI protein, soluble …; experiment: SPR (Biacore 3000), human GPVI immobilised, Fab analyte
Procedure: Surface plasmon resonance technology on a Biacore 3000 (GE Healthcare) was used for detailed kinetic characterisation of purified antibody fragments. An assay with immobilised human GPVI was used. Typically, 300 RU of GPVI were immobilised on a research grade CM5 chip by amine reactive coupling, resulting in an Rmax of 200 RU for the bound antibody fragment. Binding kinetics were measured over a concentration range between 3.2 to 112 nM in HBS-EP (10 mM HEPES pH 7.4, 150 mM NaCl, 3 mM EDTA, 0.005% Surfactant P20) at a flow rate of 30 μl/min. Chip surfaces were regenerated with 10 mM glycine pH2.0. Kinetic parameters were analysed and calculated in the BIAevaluation program package (version 4.1) using a flow cell without immobilised GPVI as reference. A 1:1 binding model with mass transfer was applied for a global fit of the data for curves corresponding to analyte concentrations from 3-56 nM of Fab fragment.
Note that the Biacore assay used to measure the data in this example is different in terms of immobilized binding partner (GPVI versus the mAb/Fab fragment) and this leads to the different Biacore affinities as reported in Table 5.

hGPVI-hFc fusion protein [2] = target: T3, hGPVI-hFc fusion protein (human); experiment: DELFIA competition assay: Fab preincubated with GPVI-Fc (3 µg/ml), binding to collagen-coated plate, Test 1
T3 construct: also called GPVI-Fc; human GPVI-Fc fusion protein
Procedure: (§1) Collagen coated 384 well plates (Pierce) were blocked with 3% BSA for 2 h. Increasing concentrations of anti GPVI Fab fragments (0.3-20 μg/ml) were incubated with recombinant GPVI (Fusion protein of the extracellular domain of GPVI and Fc-Part of human IgG; 3 μg/ml). The GPVI-Fab mixture was added to collagen coated plates and incubated for 1 h at RT. 384 well plates were washed (DELFIA wash buffer, Perkin Elmer) five times and Eu-labelled anti-human IgG (100 ng/ml Perkin Elmer) was added. Following 1 h incubation at room temperature plates were washed again five times, enhancement solution (Perkin Elmer) was added and incubated for 10 min. Fluorescence was detected at 360/612 nm using a Tecan Ultra reader. Shown in Table 15 are examples of the inhibitory effect of recombinantly produced anti-GPVI Fab fragments on GPVI collagen binding.

hGPVI-hFc fusion protein [3] = target: T3, hGPVI-hFc fusion protein; experiment: DELFIA competition assay: Fab preincubated with GPVI-Fc (3 µg/ml), binding to collagen-coated plate, Test 2
Procedure: as §1

human GPVI on platelets = target: T2, human GPVI on platelets; experiment: cell-based or functional assay
hGPVI-hFc fusion protein [4] = target: T3, hGPVI-hFc fusion protein; experiment: DELFIA competition assay: Fab preincubated with GPVI-Fc (3 µg/ml), binding to collagen-coated plate, Test 3
Procedure: as §1

Binder | Kd [1] [nM] | koff [1] [s⁻¹] | kon [1] [M⁻¹ s⁻¹] | IC50 (hGPVI-hFc fusion protein [2]) [µg/mL] | IC50 (hGPVI-hFc fusion protein [3]) [µg/mL] | IC50 for inhibition of collagen induced platelet aggregation (human PRP), Test 1 (human GPVI on platelets) [µg/mL] | IC50 for inhibition of collagen induced platelet aggregation (human PRP), Test 2 (human GPVI on platelets) [µg/mL] | IC50 for inhibition of collagen induced platelet aggregation (human PRP), Test 3 (human GPVI on platelets) [µg/mL] | IC50 (hGPVI-hFc fusion protein [4]) [µg/mL]
humanized anti-GPVI Fab VL1/VH2 (Fab, V domains shown, Recombinant Fab: VH fused to CH1 of human IGHG1 (Q569F4), HC ends in DKTHT; VL fused to human constant kappa (Q502W4); also called VL1 with VH2) VH: QVQLQESGPGLVAPSQSLSITCTVSGFSLTGYGVNWVRQPPSRGLEWLGMIWGDGSTDYQSTLKSRLSISKDNSKSQVFLKMNSLTTDDTARYYCARDLPMDYWGQGTSVTVSS VL: DIQMTQSPSSLSASVGGRVTITCKASQDINKYIAWYQHKPGKGPSLLIHYTSTLQPGVPSRFSGSGSGRDYSFSISNLQPEDIATYYCLQYANLLTFGGGTKLEIKR | 0.2 | 3e-05 | 113000 | 1.17 | 0.82 | 2.3 | 2 | 1.1 | 
humanized anti-GPVI Fab VL1/VH5 (Fab, V domains shown, Recombinant Fab: VH fused to CH1 of human IGHG1 (Q569F4), HC ends in DKTHT; VL fused to human constant kappa (Q502W4); also called VL1 with VH5) VH: QVQLQESGPGLVAPSQSLSITCTVSGFSLTGYGVNWVRQPPSRGLEWLGMIWGDGSTDYQSTLKSRLSISKDNSKSQVFLKMNSLTTDDTARYYCARDLPMDEWGQGTSVTVSS VL: DIQMTQSPSSLSASVGGRVTITCKASQDINKYIAWYQHKPGKGPSLLIHYTSTLQPGVPSRFSGSGSGRDYSFSISNLQPEDIATYYCLQYANLLTFGGGTKLEIKR | 0.4 | 3e-05 | 81000 | 1.41 | 1.58 | 1.9 | 2.3 | 1.2 | 1.24
humanized anti-GPVI Fab VL1/VH3 (Fab, V domains shown, Recombinant Fab: VH fused to CH1 of human IGHG1 (Q569F4), HC ends in DKTHT; VL fused to human constant kappa (Q502W4); also called VL1 with VH3) VH: EVQLLESGPGLVAPSGSLSITCTVSGFSLTGYGVNWVRQPPGKGLEWLGMIWGDGSTDYQSTLKSRLSISKDNSKSQVFLKMNSLRTDDTARYYCARDLPMDYWGLGTSVTVSS VL: DIQMTQSPSSLSASVGGRVTITCKASQDINKYIAWYQHKPGKGPSLLIHYTSTLQPGVPSRFSGSGSGRDYSFSISNLQPEDIATYYCLQYANLLTFGGGTKLEIKR | 0.1 | 2e-05 | 148000 | 0.63 | 1.24 | 1.7 | 1.5 | 1.5 | 0.87

More lines, in order of falling Kd [1], values ahead:

Kd [1] [nM] | koff [1] [s⁻¹] | kon [1] [M⁻¹ s⁻¹] | IC50 (hGPVI-hFc fusion protein [2]) [µg/mL] | IC50 (hGPVI-hFc fusion protein [3]) [µg/mL] | IC50 for inhibition of collagen induced platelet aggregation (human PRP), Test 1 (human GPVI on platelets) [µg/mL] | IC50 for inhibition of collagen induced platelet aggregation (human PRP), Test 2 (human GPVI on platelets) [µg/mL] | IC50 for inhibition of collagen induced platelet aggregation (human PRP), Test 3 (human GPVI on platelets) [µg/mL] | IC50 (hGPVI-hFc fusion protein [4]) [µg/mL] | Binder
0.4 | 4e-05 | 111000 | 1.1 | 0.75 | 1.5 | 2.3 |  | 1 | humanized anti-GPVI Fab VL1/VH1 (Fab, V domains shown, Recombinant Fab: VH fused to CH1 of human IGHG1 (Q569F4), HC ends in DKTHT; VL fused to human constant kappa (Q502W4); also called VL1 with VH1) VH: QVQLQESGPGLVAPSQSLSITCTVSGFSLTGYGVNWVRQPPSRGLEWLGMIWGDGSTDYQSTLKSRLSISKDTSKSQVFLKMNSLTTDDTARYYCARDLPMDYWGQGTSVTVSS VL: DIQMTQSPSSLSASVGGRVTITCKASQDINKYIAWYQHKPGKGPSLLIHYTSTLQPGVPSRFSGSGSGRDYSFSISNLQPEDIATYYCLQYANLLTFGGGTKLEIKR
0.2 | 2e-05 | 124000 | 1.01 | 1.14 | 1.6 | 1.8 | 1.2 | 1.06 | humanized anti-GPVI Fab VL1/VH4 (Fab, V domains shown, Recombinant Fab: VH fused to CH1 of human IGHG1 (Q569F4), HC ends in DKTHT; VL fused to human constant kappa (Q502W4); also called VL1 with VH4) VH: QVQLQESGPGLVAPSQSLSITCTVSGFSLTYYGVNWVRQPPSRGLEWLGMIWGDGSTDYQSTLKSRLSISKDNSKSQVFLKMNSLTTDDTARYYCARDLPMDYWGQGTSVTVSS VL: DIQMTQSPSSLSASVGGRVTITCKASQDINKYIAWYQHKPGKGPSLLIHYTSTLQPGVPSRFSGSGSGRDYSFSISNLQPEDIATYYCLQYANLLTFGGGTKLEIKR
